In PMC6915088, “Biosynthesis of the Stress-Protectant and Chemical Chaperon Ectoine: Biochemistry of the Transaminase EctB” (Frontiers in Microbiology, 2019):

How the values were obtained:
(Pl)EctB = biological target: T1, (Pl)EctB (Paenibacillus lautus, UniProt A0A385TGF8); experiment: activation of apo-enzyme by added PLP, L-glutamate formation by HPLC; type: biochemical; settings: 10 mM DAB, 15 mM 2-oxoglutarate, 100 mM Tris-HCl pH 7.0, 100 mM NaCl, 45 °C, 1 min; titration curve only, no constant; Schiff base at Lys274 inferred
T1 construct: full length; N-terminal Strep-tag II (WSHPQFEK) with linker SGMIEGR (factor Xa site), plasmid pAR8; no tag removal described; E. coli BL21; homotetramer; purified as apo-protein, PLP added

[1] = biological target: the molecule itself; experiment: SEC-MALS; S200 300/10 GL analytical column with MALS and RI detectors, 4°C; 100 μL sample at 100 μM protein; 20 mM HEPES pH 7.5, 200 mM NaCl, 20 mM MgCl2, 20 mM KCl

Row | Molecule | activation of apo-enzyme by added PLP, L-glutamate formation by HPLC ((Pl)EctB) | stoichiometry N [1]
1 | Cc1ncc(COP(=O)(O)O)c(C=O)c1O [PLP] | the specific activity of (Pl)EctB strictly relies on the addition of PLP | 
2 | (Pl)EctB, L-2,4-diaminobutyrate transaminase EctB from Paenibacillus lautus (enzyme, Paenibacillus lautus strain Y412MC10, UniProt A0A385TGF8 1-430, looked up, EctB (L-2,4-diaminobutyrate transaminase) of Paenibacillus lautus strain Y412MC10; codon-optimized synthetic ectB gene; calculated mass 49.1 kDa including the Strep-tag II peptide and linker; The protein was purified as an apo-protein without PLP; also called (Pl)EctB wild-type protein; P. lautus EctB; not shown: Strep-tag II, N-terminal, kept) MDNQVMEKPKLTVFNKLESEVRSYCRSFQTVFDKARNAKLWDTQGNEYIDFFAGAGALNYGHNNERIREKLVDYILQDGVTHSLDMATGAKETFLTRFQEIILKPRGWDHKVMFPGPTGTNAVEAALKIARKVTGRSTVLCFTNAFHGMSLGSLAVTGNAFKRQGAGVDLSHSVFMPYDGYFGSDVDTMAYMEKLLDDPGSGIPLPAAVIVEAVQGEGGLNAASRQWLQKLARICKDKGMLLILDDIQMGCGRTGSFFSFDDAGIEPDIVCLSKSIGGFGLPMAITLIKPEIDIWEPGEHNGTFRGNNLGFVAAAEALSYWKTEEFQLDIGIREHRIRQSLENVVREYPRLGGEIRGRGMIQGVAFDKPEHAGRLSEIAFEQGLIMETSGPHSEVAKLMPPLTIEMNTLAEGLGIFENSMKQLAAEERLS |  | 4
3 | (Pl)EctB Lys274/His variant (enzyme, Paenibacillus lautus strain Y412MC10, UniProt A0A385TGF8 1-430, looked up, EctB (L-2,4-diaminobutyrate transaminase) of Paenibacillus lautus strain Y412MC10; codon-optimized synthetic ectB gene with Lys274 changed to His (AAA/CAT) by site-directed mutagenesis of pAR8; not shown: Strep-tag II, N-terminal, kept) MDNQVMEKPKLTVFNKLESEVRSYCRSFQTVFDKARNAKLWDTQGNEYIDFFAGAGALNYGHNNERIREKLVDYILQDGVTHSLDMATGAKETFLTRFQEIILKPRGWDHKVMFPGPTGTNAVEAALKIARKVTGRSTVLCFTNAFHGMSLGSLAVTGNAFKRQGAGVDLSHSVFMPYDGYFGSDVDTMAYMEKLLDDPGSGIPLPAAVIVEAVQGEGGLNAASRQWLQKLARICKDKGMLLILDDIQMGCGRTGSFFSFDDAGIEPDIVCLSHSIGGFGLPMAITLIKPEIDIWEPGEHNGTFRGNNLGFVAAAEALSYWKTEEFQLDIGIREHRIRQSLENVVREYPRLGGEIRGRGMIQGVAFDKPEHAGRLSEIAFEQGLIMETSGPHSEVAKLMPPLTIEMNTLAEGLGIFENSMKQLAAEERLS |  | 4
